Measurements taken from paper PMC2779590.

Molecular target: stable 100 kDa N-terminal fragment of CagA (Helicobacter pylori (strain not stated)) (UniProt P55980)
Assay: SPR

stable 100 kDa N-terminal fragment of CagA (Helicobacter pylori (strain not stated)), sequence (P55980 1-885 limits assumed): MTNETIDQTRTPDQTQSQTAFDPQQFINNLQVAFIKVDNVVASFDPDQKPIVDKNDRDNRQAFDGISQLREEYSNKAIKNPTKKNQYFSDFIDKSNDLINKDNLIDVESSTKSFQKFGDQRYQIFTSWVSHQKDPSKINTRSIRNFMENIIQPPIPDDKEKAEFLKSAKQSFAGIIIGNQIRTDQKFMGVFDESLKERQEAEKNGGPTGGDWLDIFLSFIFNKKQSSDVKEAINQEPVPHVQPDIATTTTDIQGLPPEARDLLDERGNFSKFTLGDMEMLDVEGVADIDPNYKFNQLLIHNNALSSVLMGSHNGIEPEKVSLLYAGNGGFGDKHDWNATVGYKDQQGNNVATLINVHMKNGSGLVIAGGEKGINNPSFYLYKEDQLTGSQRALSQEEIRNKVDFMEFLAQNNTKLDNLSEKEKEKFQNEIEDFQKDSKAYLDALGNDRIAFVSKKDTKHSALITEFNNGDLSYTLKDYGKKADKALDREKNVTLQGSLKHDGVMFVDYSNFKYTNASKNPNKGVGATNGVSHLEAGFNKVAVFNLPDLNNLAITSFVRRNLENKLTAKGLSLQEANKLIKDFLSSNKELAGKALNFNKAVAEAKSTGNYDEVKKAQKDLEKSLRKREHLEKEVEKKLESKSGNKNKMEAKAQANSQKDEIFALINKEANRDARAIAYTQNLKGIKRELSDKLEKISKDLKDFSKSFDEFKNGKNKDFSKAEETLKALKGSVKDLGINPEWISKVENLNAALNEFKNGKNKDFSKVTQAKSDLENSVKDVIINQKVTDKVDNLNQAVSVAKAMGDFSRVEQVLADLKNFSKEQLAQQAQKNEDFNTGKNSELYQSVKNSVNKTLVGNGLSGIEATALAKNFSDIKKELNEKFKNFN

Substance | Kd [nM]
purified human α5β1 integrin (from placenta) (from UniProt P05556 21-798) (complex) | 0.153
purified human αVβ3 integrin (from placenta) (from UniProt P05106 27-788) (complex) | 33.4
